{"source": "patent US20100322950A1", "target": "CD44 receptors on SMMC-7721-SC2 hepatocellular carcinoma cells (human) (UniProt P16070)", "sequence (P16070 21-742)": "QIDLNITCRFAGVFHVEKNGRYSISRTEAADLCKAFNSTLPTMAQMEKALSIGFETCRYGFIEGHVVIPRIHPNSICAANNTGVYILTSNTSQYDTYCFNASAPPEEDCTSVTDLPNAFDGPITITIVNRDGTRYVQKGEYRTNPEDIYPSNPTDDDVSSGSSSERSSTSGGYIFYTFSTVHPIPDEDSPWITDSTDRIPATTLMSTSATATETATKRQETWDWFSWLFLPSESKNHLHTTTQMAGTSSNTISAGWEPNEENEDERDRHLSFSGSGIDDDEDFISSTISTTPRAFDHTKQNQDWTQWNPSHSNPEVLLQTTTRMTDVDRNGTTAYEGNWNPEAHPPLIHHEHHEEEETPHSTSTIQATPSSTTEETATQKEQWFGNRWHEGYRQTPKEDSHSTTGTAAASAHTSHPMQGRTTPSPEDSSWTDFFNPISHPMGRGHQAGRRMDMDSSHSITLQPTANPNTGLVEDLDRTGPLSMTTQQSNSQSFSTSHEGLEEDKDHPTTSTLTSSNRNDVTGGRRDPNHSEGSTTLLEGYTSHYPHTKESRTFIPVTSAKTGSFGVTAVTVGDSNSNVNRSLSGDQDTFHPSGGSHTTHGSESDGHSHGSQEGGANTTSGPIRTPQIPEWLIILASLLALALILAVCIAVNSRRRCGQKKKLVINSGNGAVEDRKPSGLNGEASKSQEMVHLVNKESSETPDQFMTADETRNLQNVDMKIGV", "assay": "cell-based or functional assay", "data": [{"substance": "OPN-5 kD expressed from the pDest-490 vector with C-terminal 1xFLAG tag (from UniProt P10451 167-210) (ligand)", "values": [{"measurement": "cellular invasion of SMMC-7721-SC2 cells through Matrigel, 36 hours", "value": "> 2", "unit": "fold"}]}]}
